The results in this text go back to patent publication US20260250651, “CAS12 PROTEINS AND USES THEREOF” (GUANGZHOU REFORGENE MEDICINE CO., LTD., published 2026).

Residue numbers refer to the chain shown, from its start.

The target in series [1] is T1, Cas12i (wild-type, from CN111757889B).
T1 chain: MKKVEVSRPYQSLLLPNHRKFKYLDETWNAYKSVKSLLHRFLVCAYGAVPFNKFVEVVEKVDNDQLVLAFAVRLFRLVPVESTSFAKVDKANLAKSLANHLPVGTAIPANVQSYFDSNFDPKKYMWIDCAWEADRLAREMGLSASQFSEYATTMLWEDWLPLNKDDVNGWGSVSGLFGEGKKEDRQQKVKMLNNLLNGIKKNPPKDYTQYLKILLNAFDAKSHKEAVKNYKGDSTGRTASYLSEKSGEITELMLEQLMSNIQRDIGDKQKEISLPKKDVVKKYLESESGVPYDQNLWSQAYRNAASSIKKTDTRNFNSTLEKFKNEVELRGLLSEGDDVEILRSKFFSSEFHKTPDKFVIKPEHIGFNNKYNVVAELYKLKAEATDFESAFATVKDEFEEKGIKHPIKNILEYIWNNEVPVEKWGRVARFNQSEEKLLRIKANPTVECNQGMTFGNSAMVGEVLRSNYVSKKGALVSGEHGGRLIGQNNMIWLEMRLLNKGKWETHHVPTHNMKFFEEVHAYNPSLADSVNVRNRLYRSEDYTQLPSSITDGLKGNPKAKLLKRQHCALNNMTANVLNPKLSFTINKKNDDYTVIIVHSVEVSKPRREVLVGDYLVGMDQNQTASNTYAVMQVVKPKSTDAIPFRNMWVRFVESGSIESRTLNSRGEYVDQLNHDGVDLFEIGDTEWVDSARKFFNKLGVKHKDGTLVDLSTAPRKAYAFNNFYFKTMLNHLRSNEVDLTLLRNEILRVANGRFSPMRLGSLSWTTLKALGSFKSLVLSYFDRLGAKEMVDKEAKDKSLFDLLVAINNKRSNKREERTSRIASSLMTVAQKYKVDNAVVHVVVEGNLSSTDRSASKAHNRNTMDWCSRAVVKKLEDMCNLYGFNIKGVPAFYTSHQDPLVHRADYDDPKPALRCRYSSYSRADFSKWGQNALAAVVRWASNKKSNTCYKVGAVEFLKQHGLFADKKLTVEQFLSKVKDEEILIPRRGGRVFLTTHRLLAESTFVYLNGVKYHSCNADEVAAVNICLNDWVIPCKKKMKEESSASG
Put plainly: cell_activity; 293T indels, reference; PAM not stated. The protocol: (§1) Plating: The 293T cell line was plated when the confluence reached 70-80%, and the number of cells seeded in a 24-well plate was 5*10\hat{ }5 cells/well.
(§2) Transfection: After 12-14 hours of plating, transfection was performed. 100 μl of Opti-MEM, 1.5 μl of PEI (Yisheng Bio, Polyethylenimine Linear (PEI) MW25000), 250 ng of the mutant clone plasmid from Example 2, and 250 ng of gRNA plasmid for targeting endogenous genes were added to each well of a 24-well plate. The mixture was incubated at room temperature for 20 minutes and then added to 293T cells for transfection. After transfection overnight, the medium was replaced with fresh medium and cultured for the next period.
(§3) DNA extraction, PCR amplification, and Sanger sequencing: After culturing for 72 hours, cells were washed with PBS, and then 100 μl of cell lysis buffer (Viagen, DirectPCR® Lysis Reagent (Cell)) was added for lysis to obtain a lysate containing genomic DNA. The genomic DNA was amplified in the region near the target sequence, and the PCR product was sent to a sequencing company for Sanger sequencing.

Series [2] deals with T2, Cas12i-30 (N295R,N260R).
T2 chain: T1 chain with N260R, N295R
The series is described as follows: cell_activity; 293T indels; editing >10%. How it is done: as §1, §2, §3

In series [3] the target is T2, Cas12i-30. Put plainly: cell_activity; 293T indels, reference; editing >10%. The protocol:
as §1, §2, §3

B1: gRNA-HBG ; HBG target (ssRNA ; dsDNA)
RNA: AGAGAAUGUGUGCAUAGUCACACACAAGGCAAACUUGACCAAU
DNA 1: ACAAGGCAAACTTGACCAAT
DNA 2: ATTGGTCAAGTTTGCCTTGT
For the molecule B1, in series [1], the indel editing activity is 1 fold of wild type.

B2: gRNA-TTR ; TTR target (ssRNA ; dsDNA)
RNA: AGAGAAUGUGUGCAUAGUCACACCAGUAAGAUUUGGUGUCUAU
DNA 1: CAGTAAGATTTGGTGTCTAT
DNA 2: ATAGACACCAAATCTTACTG
For the molecule B2, the indel editing activity in series [1] is 1 fold of wild type. Besides, in the series with Cas12i-30 [2], the “relative indel editing efficiency” value was 1.89 fold of wild type.

B3: gRNA-HBB ; HBB target (ssRNA ; dsDNA)
RNA: AGAGAAUGUGUGCAUAGUCACACUAUGCAGAAAUAUUGCUAUUGCCU
DNA 1: TATGCAGAAATATTGCTATTGCCT
DNA 2: AGGCAATAGCAATATTTCTGCATA
Consider B3, for which the “relative indel editing efficiency” value with Cas12i-30 [3] was 1 fold of Cas12i-30.
